Data from article PMC9092470, “Understanding p300-transcription factor interactions using sequence variation and hybridization†” (RSC Chemical Biology, 2022).

How the values were obtained:
[1] = biological target: GST-tagged p300 CH1 domain (residues 330–420) (UniProt Q09472); assay: SEC; size exclusion chromatography of the GST fusion (protein characterization, Fig. S15)
[2] = biological target: T1, HIF-1α786-826/p300 complex (Homo sapiens, UniProt Q09472); assay: Competition ITC: CITED2 peptide titrated to preformed p300/HIF-1α786–826 complex; assay type: binding; details: titrated to HIF-1α786-826/p300 complex, fitted with fixed KD = 42.9 nM and ΔH = -25.8 kcal/mol for HIF-1α786-826, read-out: KD,app CITED2
T1 construct: GST (N, cleaved yes); made in house; host or cells: p300: E. coli BL21 pLysS (pGEX-4T1-p300); HIF-1α peptide: chemical synthesis
Protocol: Figure S7Apparent KD fits for the competition ITC experiment using a competition interaction model. p300/ligand complexes were prepared by titrating the appropriate ligand first to p300 in the cell using 3-5 µM protein concentration, the titration stopped when it reached close to […]
(Table S5) Then it was titrated with the competitor ligand using 30-60 µM concentration in the syringe, 5 or 10 uL injections with 180-240 s spacing. Background titrations were performed without p300 in the cell and subtracted from the measurements. Apparent KD,app and ΔH app values data were fitted to a competition model (Fig. S17) in SEDPHAT. Error bars represent the estimated integration errors.
(1 picture or pasted object on this page, not shown here) […]
instrument using 3-5 µM protein in the cell and 40-60 µM ligand in the syringe at 35°C, using 5 µl injections and 180 s spacing between injections, for 40 injections. […] Data were analysed using NITPIC3 and fitted using SEDPHAT4 to a single binding site model (fixed 1:1 stoichiometry), with baseline and incompetent protein fraction as adjustable parameters. 68 % confidence intervals for the fitted values were determined using the automatic confidence interval search implemented in SEDPHAT. […]

[3] = biological target: T2, p300 CH1 domain (residues 330–420) (UniProt Q09472 330-420); assay: ITC; peptide in the syringe, p300 in the cell (Fig. 4: 5 μM protein, 60 μM ligand); 40 mM sodium phosphate, pH 7.5, 100 mM NaCl, 1 mM DTT, 35 °C; single-site model, fixed 1:1 stoichiometry; details: both partners purified
T2 construct: p300 CH1 domain, residues 330–420; The cleavage of GST is said for the anisotropy control; also called p300 with the GST tag cleaved; source: recombinantly expressed as a fusion protein with GST, GST tag cleaved

[4] = biological target: T2, p300 CH1 domain (residues 330–420); assay: ITC; competition: CITED2 peptides titrated into the preformed p300/HIF-1α 776–826 complex (1.2–1.6 equivalents of HIF-1α); 40 mM sodium phosphate, pH 7.5, 100 mM NaCl, 1 mM DTT, 35 °C; competitive binding model; apparent; details: both partners purified
[5] = biological target: T3, GST-p300 (GST-tagged p300 CH1 domain, residues 330-420) (human, UniProt Q09472 330-420); assay: fluorescence polarisation; fluorescence anisotropy competition; 5 nM FAM-HIF786-826 as tracer, two-fold dilution series of the competitor from 10 µM over 24 points; 25 mM Tris-HCl, 150 mM NaCl, 1 mM DTT, pH 7.4; concentration of p300 not stated; details: both partners purified
T3 construct: human p300, CH1 domain (zinc finger, TAZ type 1), residues 330-420; For the fluorescence anisotropy experiments the GST cleavage step was omitted (D1:p17); source: E. coli (pGEX-6P-2 in Rosetta 2 or pGEX-4T-1 in BL21 pLysS), glutathione beads, eluted with glutathione, SEC
T3 sequence (Q09472 330-420): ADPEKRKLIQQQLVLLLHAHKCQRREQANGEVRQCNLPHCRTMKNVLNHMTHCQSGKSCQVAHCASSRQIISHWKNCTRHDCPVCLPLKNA

T2 sequence (Q09472 330-420): as above
T1 sequence (Q09472 330-420, one chain of several): as the sequence (Q09472 330-420) above

In the case of “GST-tagged p300 CH1 domain (residues 330–420) (from UniProt Q09472 330-420) (domain or fragment)”, the stoichiometry N [1] is reported as 2.

For “Ac-DEEVLMSLVIEMGLDRIKELPELWLGQNEFDFMTDF-NH2 [CITED2_224–259]”, the Kd [2] was 8.4 nM.

NVIDTDFIDEEVLMSLVIEMGLDRIKELPELWL (peptide, UniProt Q99967 216-248, looked up) [CITED2 216–248 (C-terminally truncated CITED2)] was tested, and the Kd [3] was 303 nM and the “KD,app (competition against the preformed p300/HIF-1α 776–826 complex)” value [4] was 46.9 nM.

B1: HIF-1α786-826 (expressed, His10-GFP cleaved off) (peptide)
peptide: GPGSSMDESGLPQLTSYDCEVNAPIQGSRNLLQGEELLRALDQVN
notes: four residues (Gly-Pro-Gly-Ser) left from the PreScission protease site; source: E. coli Rosetta 2, from inclusion bodies, His-trap, on-column PreScission cleavage, RP-HPLC; not shown: GFP, N-terminal, cleaved
In the case of B1, the IC50 [5] is reported as 59 ± 6 nM.
